We go through 15 sequences from the supplement of paper PMC9170038.

This series has as its system MS2 coat protein. Nature of the series: apparent KD of MS2 coat protein; designed switch direction (-1 OFF switch, 1 ON switch): -1; higher = weaker reporter binding. The method, boiled down:
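For each design, the apparent KD is the median over clusters of curves fitted to normalised cluster fluorescence. Clusters held RNA switches with common flanks, transcribed on Illumina chips by stalled E. coli RNA polymerase. These were titrated with SNAP-549-labelled MS2 coat protein, doubling from 0.7 or 1.5 nM to 3 µM, without input, with 200 uM small-molecule ligand, or with an oligonucleotide input.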

[1] abbreviates: input ligand: microRNA oligo, concentration not stated.

In the case of “AGCUAGAUAGGAUAUGCCCGAGAUAACAUGAGGAUCACCCAUGUGACCGAAUCUAUUCUAGCAGAAGGGUUUAGGA [Mod of ViennaUCT 17 - Jieux - Exclusion 5] (Eterna round: R97, puzzle: Exclusion 5)”, the “apparent KD of MS2 coat protein” value by setting is: (input ligand: FMN 200 uM) 16.5 nM; (input ligand: none) 14 nM.

In the case of “AGCUAGAUAGGAUAUGCCCGGGAUAACAUGAGGAUCACCCAUGUGACCGAAUCAAAUCCAGCAGAAGGGUUUGGGA [Mod of ViennaUCT 13 - Jieux - Exclusion 5] (Eterna round: R97, puzzle: Exclusion 5)”, the “apparent KD of MS2 coat protein” value is, setting by setting: (input ligand: FMN 200 uM) 22 nM; (input ligand: none) 18.6 nM.

“AGCUAGAUAGGAUAUGCCCGGGAUAACAUGAGGAUCACCCAUGUGGCCGAAUCAUGUCCAGCAGAAGGGUUUGGGA [Mod of ViennaUCT 10 - Jieux - Exclusion 5] (Eterna round: R97, puzzle: Exclusion 5)”: the “apparent KD of MS2 coat protein” value (input ligand: FMN 200 uM) was determined as 18.2 nM and the “apparent KD of MS2 coat protein” value (input ligand: none) came to 17 nM.

In the case of “AGCUAGUCAGGAUAUACGAAAAUGUCAGAAGCUGAGAAGGGACAUGAGGAUCACCCAUGUAGAAGGGACUAGCA [Diamond 37] (Eterna round: R96, puzzle: Exclusion 2)”, under setting [1], the “apparent KD of MS2 coat protein” value was found to be 48.7 nM.

In the case of “AGCUAGUCAGGAUAUUCUAAUAAUUACAUGAGGAUCACCCAUGUGAAUGGACAAGGGUGUGAAGAAGGGACUAGCG [Omei Ex5 A9] (Eterna round: R97, puzzle: Exclusion 5)”, the “apparent KD of MS2 coat protein” value was 429 nM (input ligand: FMN 200 uM) and 1230 nM (input ligand: none).

For the sequence “AGCUAGUGCCGAGGAUAUACAUGAGGAUCACCCAUGUAAGCCAGUCGGUUUCUGACUGGCAAGAUGUAGAAGGCGGCGUUGGCA [JL ENG2 1.50] (Eterna round: R96, puzzle: Exclusion NG 2)”, the “apparent KD of MS2 coat protein” value by setting is: (input ligand: FMN 200 uM) 57.1 nM; under setting [1], 9.57 nM; (input ligand: none) 13.5 nM.

“AGCUGACAAGGAUAUACAUGAGGAUCACCCAUGUUGGUUCAGCGACGAUAGUCGCAAUGUAGAAGGUGUCAGCU [E3/9-C2] (Eterna round: R97, puzzle: Exclusion 3)”: the “apparent KD of MS2 coat protein” value by setting is: (input ligand: FMN 200 uM) 108 nM; (input ligand: none) 282 nM.

In the case of “AGCUGUGAGCGAGGAUAUCUGCUGUUUUCGGUCGGAGAAGGCGCGGACAGAACAUGAGGAUCACCCAUGUGUAUGGGCGGCCUC [Xexeenve] (Eterna round: R96, puzzle: Exclusion NG 1)”, the “apparent KD of MS2 coat protein” value was found to be 119 nM (input ligand: FMN 200 uM), 44.5 nM under setting [1] and 73.7 nM (input ligand: none).

In the case of “AGCUGUGGCCAAGGAUAUCCAACCUUAAAUACCGACGUAUAGUCGGACAUGAGGAUCACCCAUGUGGAGAAGGUGGUCUCAGCA [Eli eng2 - 042] (Eterna round: R96, puzzle: Exclusion NG 2)”, the “apparent KD of MS2 coat protein” value (input ligand: FMN 200 uM) stood at 52.2 nM, the “apparent KD of MS2 coat protein” value under setting [1] is 33.7 nM and the “apparent KD of MS2 coat protein” value (input ligand: none) stood at 30.1 nM.

Take “AGCUGUGGCCGAGGAUAUACAUGAGGAUCACCCAUGUUACAUAAUUAAGCCGGAGAACCGGCUCCGUAGAAGGCGGUCUCAGCA [Eli eng2 - 003] (Eterna round: R96, puzzle: Exclusion NG 2)”: the “apparent KD of MS2 coat protein” value (input ligand: FMN 200 uM) was found to be 12.6 nM, the “apparent KD of MS2 coat protein” value under setting [1] stood at 9.39 nM and the “apparent KD of MS2 coat protein” value (input ligand: none) came out at 13.7 nM.

Consider “AGCUGUGGCCGAGGAUAUCAAGACCGAUGGAAAACCAUCGGAACUCAACAUGAGGAUCACCCAUGUGAGAAGGCGGUCUCAGCA [Eli eng2 - 027] (Eterna round: R96, puzzle: Exclusion NG 2)”, for which the “apparent KD of MS2 coat protein” value by setting is: (input ligand: FMN 200 uM) 10.9 nM; under setting [1], 7.82 nM; (input ligand: none) 10.9 nM.

For “AGCUGUGGCCGAGGAUAUCACUACCGAUGGAAAACCAUCGGAACUCCACAUGAGGAUCACCCAUGUGAGAAGGCGGUCUCAGCA [Eli eng2 - 029] (Eterna round: R96, puzzle: Exclusion NG 2)”, the “apparent KD of MS2 coat protein” value was found to be 24 nM (input ligand: FMN 200 uM), 11.2 nM under setting [1] and 15.7 nM (input ligand: none).

Consider “AGCUGUGGCCGAGGAUAUCUAAACCUCGAAAACGAAAUAUAAUCGAACAUGAGGAUCACCCAUGUAGAGAAGGCGGUCUCAGCA [Eli eng2 - 033] (Eterna round: R96, puzzle: Exclusion NG 2)”, for which, under setting [1], the “apparent KD of MS2 coat protein” value amounted to 51 nM.

With “AGCUGUGGCCGAGGAUAUCUAUCCAAUAAAACCGAAAUAUAAUCGGACAUGAGGAUCACCCAUGUAGAGAAGGCGGUCUCAGCA [Eli eng2 - 094] (Eterna round: R96, puzzle: Exclusion NG 2)”, under setting [1], the “apparent KD of MS2 coat protein” value came to 16.4 nM.

In the case of “AGCUGUGGCCGAGGAUAUCUGUUCCAUAUAACCGACGUAUAGUCGGACAUGAGGAUCACCCAUGUAGAGAAGGCGGUCUCAGCA [Eli eng2 - 000] (Eterna round: R96, puzzle: Exclusion NG 2)”, the “apparent KD of MS2 coat protein” value (input ligand: FMN 200 uM) turned out to be 39.2 nM, the “apparent KD of MS2 coat protein” value under setting [1] was 23.3 nM and the “apparent KD of MS2 coat protein” value (input ligand: none) came out at 25.4 nM.
